Several values for one entry are separate records, joined by “and”; a condition that tells them apart may be missing. Equal entries are not always repeated. Where two headings read alike, the source gives them in different places.
Experiments:
[1] = target: I100T Sin (mildly activated Sin mutant) (Staphylococcus aureus (plasmid pI9789)); assay: AUC
[2] = target: I100T Sin (mildly activated Sin mutant) (Staphylococcus aureus (plasmid pI9789)); assay: AUC; remark: listed apart in the source
[3] = target: S9A/R54E/Q115R Sin (highly activated Sin mutant with the active site serine changed) (Staphylococcus aureus (plasmid pI9789)); assay: AUC
[4] = target: S9A/R54E/Q115R Sin (highly activated Sin mutant with the active site serine changed) (Staphylococcus aureus (plasmid pI9789)); assay: AUC; remark: listed apart in the source
Sin I100T = Sin I100T (Staphylococcus aureus (plasmid pI9789), UniProt Q53757 1-202, I100T); assay: AUC sedimentation velocity
Sin S9A/R54E/Q115R = Sin S9A/R54E/Q115R (Staphylococcus aureus (plasmid pI9789), UniProt Q53757 1-202, S9A;R54E;Q115R); assay: AUC sedimentation velocity and equilibrium

Molecule: I100T Sin (mildly activated Sin mutant) (enzyme)
- stoichiometry N [1]: 2
- stoichiometry N [2]: 2

Molecule: S9A/R54E/Q115R Sin (highly activated Sin mutant with the active site serine changed) (enzyme)
- Kd [3]: 400 nM
- stoichiometry N [3]: 2 and 4
- Kd [4]: 450 nM

B1: 52-mer site I dsDNA (AUC) (dsDNA)
DNA 1: GCCTAGTTCTTTGTGAAATTTGGGTATACCCTAATCATACAAGCTTGATCTG
DNA 2: CAGATCAAGCTTGTATGATTAGGGTATACCCAAATTTCACAAAGAACTAGGC
- binding result (Sin I100T): binds
- binding result (Sin S9A/R54E/Q115R): binds

Reference: publication PMC2976518
